Experimental data taken from patent US5310665A, “Glucose isomerases having altered substrate specificity” (Gist-brocades, N.V., priority 1990, dated 1994).

Legend:
[1] = system: O=C[C@H](O)[C@@H](O)[C@H](O)CO; assay: purified protein, by the assay type; details: pH 7.5
[2] = system: T1, O=C[C@H](O)[C@@H](O)[C@H](O)CO; assay: purified protein, by the assay type; format: biochemical, Actinoplanes missouriensis; details: other: xylose, 35° C., 10 mM Mg2+, pH 7.5
T1 construct: made in house; host or cells: E. coli K514
Procedure: Alternatively, the D-fructose produced during the isomerization reaction can be determined enzymatically using sorbitol dehydrogenase and NADH.
As a measure of specificity the quotient is Vmax /Km is sometimes used (Wells et al., ibid). […] These temperatures are chosen for practical reasons.
Activities were measured on purified enzyme. The coupled sorbitol dehydrogenase assay was used for xylose, the cysteine-carbazole or discontinuous sorbitol dehydrogenase method was used for glucose.

Sequence of Actinoplanes missouriensis glucose isomerase, wild type, SEQ ID NO: 1 (Actinoplanes missouriensis 431) (chain, as listed by the source): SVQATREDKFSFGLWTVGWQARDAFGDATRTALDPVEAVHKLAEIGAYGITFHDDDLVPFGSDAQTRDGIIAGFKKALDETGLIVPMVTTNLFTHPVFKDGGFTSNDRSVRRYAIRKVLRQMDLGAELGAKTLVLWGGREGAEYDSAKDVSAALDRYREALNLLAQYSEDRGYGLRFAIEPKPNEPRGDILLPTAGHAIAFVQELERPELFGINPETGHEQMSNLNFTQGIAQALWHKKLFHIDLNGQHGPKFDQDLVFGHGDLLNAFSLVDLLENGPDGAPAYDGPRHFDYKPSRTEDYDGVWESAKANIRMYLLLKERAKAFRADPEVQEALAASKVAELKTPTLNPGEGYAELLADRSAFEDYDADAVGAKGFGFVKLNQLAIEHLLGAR
Sequence of Actinoplanes missouriensis glucose isomerase variant T90S (Actinoplanes missouriensis 431; T90S) (chain, as listed by the source T90S T90S): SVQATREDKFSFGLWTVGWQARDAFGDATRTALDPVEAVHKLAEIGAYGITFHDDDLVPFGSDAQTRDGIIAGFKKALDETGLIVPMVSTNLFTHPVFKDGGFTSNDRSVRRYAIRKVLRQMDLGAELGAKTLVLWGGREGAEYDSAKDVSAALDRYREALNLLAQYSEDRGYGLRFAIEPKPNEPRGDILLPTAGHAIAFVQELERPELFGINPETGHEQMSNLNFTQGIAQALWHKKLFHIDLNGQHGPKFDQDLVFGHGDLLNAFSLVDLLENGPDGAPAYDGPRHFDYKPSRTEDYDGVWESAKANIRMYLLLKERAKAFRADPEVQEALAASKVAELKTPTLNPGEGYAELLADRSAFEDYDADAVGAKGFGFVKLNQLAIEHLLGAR
Sequence of Actinoplanes missouriensis glucose isomerase variant M88SH243N (M88S/H243N) (Actinoplanes missouriensis 431; H243N/M88S) (chain, as listed by the source M88S H243N H243N M88S): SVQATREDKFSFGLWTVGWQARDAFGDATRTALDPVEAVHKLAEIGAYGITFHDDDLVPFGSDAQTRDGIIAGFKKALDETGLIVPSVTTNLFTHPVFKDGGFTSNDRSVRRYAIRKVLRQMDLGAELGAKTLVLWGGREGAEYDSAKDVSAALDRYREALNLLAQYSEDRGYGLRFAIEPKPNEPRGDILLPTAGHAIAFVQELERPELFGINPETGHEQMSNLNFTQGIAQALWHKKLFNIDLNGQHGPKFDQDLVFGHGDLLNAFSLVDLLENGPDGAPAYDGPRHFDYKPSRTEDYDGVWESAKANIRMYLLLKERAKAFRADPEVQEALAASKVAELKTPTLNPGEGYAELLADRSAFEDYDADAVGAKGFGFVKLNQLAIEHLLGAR
Sequence of Actinoplanes missouriensis glucose isomerase variant H290N (Actinoplanes missouriensis 431; H290N) (chain, as listed by the source H290N H290N): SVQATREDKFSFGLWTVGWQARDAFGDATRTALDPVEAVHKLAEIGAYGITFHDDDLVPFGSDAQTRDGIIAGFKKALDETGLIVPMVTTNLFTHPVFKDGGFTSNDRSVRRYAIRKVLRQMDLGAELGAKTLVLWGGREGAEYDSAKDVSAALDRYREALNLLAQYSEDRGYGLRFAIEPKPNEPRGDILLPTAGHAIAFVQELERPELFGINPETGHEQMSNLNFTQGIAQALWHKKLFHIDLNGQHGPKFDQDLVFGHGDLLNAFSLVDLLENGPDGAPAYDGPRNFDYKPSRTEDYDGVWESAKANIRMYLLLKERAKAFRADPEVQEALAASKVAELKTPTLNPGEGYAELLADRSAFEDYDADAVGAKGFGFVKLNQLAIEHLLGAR
Sequence of Actinoplanes missouriensis glucose isomerase variant M88SH290N (M88S/H290N) (Actinoplanes missouriensis 431; H290N/M88S) (chain, as listed by the source M88S H290N H290N M88S): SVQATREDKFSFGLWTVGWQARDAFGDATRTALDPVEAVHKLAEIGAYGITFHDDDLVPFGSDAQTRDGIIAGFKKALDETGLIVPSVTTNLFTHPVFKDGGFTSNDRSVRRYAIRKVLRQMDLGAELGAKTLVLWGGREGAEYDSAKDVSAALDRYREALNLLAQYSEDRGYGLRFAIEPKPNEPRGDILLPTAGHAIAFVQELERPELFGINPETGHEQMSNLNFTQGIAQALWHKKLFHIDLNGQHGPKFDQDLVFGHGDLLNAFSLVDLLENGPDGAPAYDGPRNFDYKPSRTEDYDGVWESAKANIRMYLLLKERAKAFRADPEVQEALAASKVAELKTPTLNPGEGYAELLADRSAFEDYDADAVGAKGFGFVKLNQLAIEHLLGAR
Sequence of Actinoplanes missouriensis glucose isomerase variant A25K (Actinoplanes missouriensis 431; A25K) (chain, as listed by the source A25K A25K): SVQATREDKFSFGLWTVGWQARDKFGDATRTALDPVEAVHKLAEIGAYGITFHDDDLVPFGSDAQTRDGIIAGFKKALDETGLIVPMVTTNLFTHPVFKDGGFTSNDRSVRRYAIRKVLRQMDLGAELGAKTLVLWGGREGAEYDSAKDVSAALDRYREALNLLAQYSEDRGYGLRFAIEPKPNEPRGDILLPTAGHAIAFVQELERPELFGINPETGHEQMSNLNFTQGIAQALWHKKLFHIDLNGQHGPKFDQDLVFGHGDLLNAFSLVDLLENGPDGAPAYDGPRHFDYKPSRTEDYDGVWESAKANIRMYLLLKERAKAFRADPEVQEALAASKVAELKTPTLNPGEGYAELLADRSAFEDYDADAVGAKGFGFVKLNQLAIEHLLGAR
Sequence of Actinoplanes missouriensis glucose isomerase variant V135Q (Actinoplanes missouriensis 431; V135Q) (chain, as listed by the source V135Q V135Q): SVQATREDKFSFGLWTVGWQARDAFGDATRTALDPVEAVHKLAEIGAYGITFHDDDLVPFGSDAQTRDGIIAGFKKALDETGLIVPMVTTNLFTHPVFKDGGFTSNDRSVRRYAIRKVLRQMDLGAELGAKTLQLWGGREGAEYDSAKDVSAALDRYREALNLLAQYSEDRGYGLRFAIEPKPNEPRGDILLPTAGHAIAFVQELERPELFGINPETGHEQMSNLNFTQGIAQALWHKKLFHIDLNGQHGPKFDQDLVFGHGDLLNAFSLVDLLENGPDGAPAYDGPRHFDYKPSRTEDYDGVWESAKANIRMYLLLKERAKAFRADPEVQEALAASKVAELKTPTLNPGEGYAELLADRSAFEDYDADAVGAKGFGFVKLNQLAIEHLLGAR
Sequence of Actinoplanes missouriensis glucose isomerase variant M88S (Actinoplanes missouriensis 431; M88S) (chain, as listed by the source M88S M88S): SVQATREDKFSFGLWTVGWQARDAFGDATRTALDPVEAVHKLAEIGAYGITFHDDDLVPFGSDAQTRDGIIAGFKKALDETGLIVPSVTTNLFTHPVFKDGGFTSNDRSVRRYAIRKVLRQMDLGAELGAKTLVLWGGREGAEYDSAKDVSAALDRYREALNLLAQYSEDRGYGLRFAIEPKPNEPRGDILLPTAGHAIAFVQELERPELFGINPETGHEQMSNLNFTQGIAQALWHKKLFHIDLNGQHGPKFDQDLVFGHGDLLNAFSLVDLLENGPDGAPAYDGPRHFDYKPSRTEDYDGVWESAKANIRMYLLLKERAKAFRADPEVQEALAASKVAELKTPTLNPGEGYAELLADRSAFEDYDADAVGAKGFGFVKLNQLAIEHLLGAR

Substance | Km [2] [mM] | also measured
Actinoplanes missouriensis glucose isomerase, wild type, SEQ ID NO: 1 (Actinoplanes missouriensis 431) |  | Km ([1]; other: 35° C., 1 mM Mn): 13.2 mM; Vmax ([1]; other: 35° C., 1 mM Mn): 8.6 µmol/min/mg; Km ([1]; other: xylose, 35° C., 10 mM Mg2+): 4.8 mM
Actinoplanes missouriensis glucose isomerase variant A25K (Actinoplanes missouriensis 431; A25K) | 2.73 | 
Actinoplanes missouriensis glucose isomerase variant M88SH243N (M88S/H243N) (Actinoplanes missouriensis 431; H243N/M88S) | 11.9 | 
Actinoplanes missouriensis glucose isomerase variant M88S (Actinoplanes missouriensis 431; M88S) | 7.6 | 
Actinoplanes missouriensis glucose isomerase variant V135Q (Actinoplanes missouriensis 431; V135Q) | 56 | 
Actinoplanes missouriensis glucose isomerase variant M88SH290N (M88S/H290N) (Actinoplanes missouriensis 431; H290N/M88S) | 14.8 | 
Actinoplanes missouriensis glucose isomerase variant H290N (Actinoplanes missouriensis 431; H290N) | 9.7 | 
Actinoplanes missouriensis glucose isomerase variant T90S (Actinoplanes missouriensis 431; T90S) | 16.8 | 
